Test results published in the supplement of paper PMC9170038.

System: MS2 coat protein
Test: apparent KD of MS2 coat protein; designed switch direction (-1 OFF switch, 1 ON switch): -1; higher = weaker reporter binding
Method in brief: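 Transcription of designed RNA switches on Illumina chips was done by stalled E. coli RNA polymerase. SNAP-549-labelled MS2 coat protein was then titrated in doubling steps from 0.7 or 1.5 nM to 3 µM, with steps of 0.8–1.5 h at the lowest and 10–20 min at the highest concentration. The per-design median over clusters of curve-fitted normalised fluorescence is reported as apparent KD.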

[1] = input ligand: microRNA oligo, concentration not stated
[2] = Eterna round: R95, input ligand: FMN 200 uM
[3] = Eterna round: R95, input ligand: microRNA oligo, concentration not stated
[4] = Eterna round: R95, input ligand: none

Sequence	apparent KD of MS2 coat protein (input ligand: FMN 200 uM) [nM]	apparent KD of MS2 coat protein [1] [nM]	apparent KD of MS2 coat protein (input ligand: none) [nM]	apparent KD of MS2 coat protein [2] [nM]	apparent KD of MS2 coat protein [3] [nM]	apparent KD of MS2 coat protein [4] [nM]
GAGAGAGCCAUAGGAUAUGCCCGCCCGCUUGCGGCAGAAGGAUGUUGACAUGAGGAUCACCCAUGUGGAUCGCCCAUGUUUGUG [All by luck] (Eterna round: R96, puzzle: Exclusion NG 1)	604	191	286	–	–	–
AAAAAACAUGAGGAUCACCCAUGUGAGGAUAUCUGUAUUCAAUCCUCGGAUUGAAUACAGAGAAGGCACAUGGG [Ex1: 609] (Eterna round: R96, puzzle: Exclusion 1)	48.5	29.2	27.8	–	–	–
GCACGGAUGGUAGGAUAUCAUUGCGAUUAGCUAUGAGAAGGGCCACAUGAGGAUCACCCAUGUCCUCUAAUUAGCCUUCCGUGC [Eli exng1 - 018] (Eterna round: R96, puzzle: Exclusion NG 1)	–	82.3	–	–	–	–
UUAUCCGCUGAGGAUAUUAUCACUGAGAGGUGAUGAGAAGGCGGUACAUGAGGAUCACCCAUGUCUAUGGGCAG [Ex-6 Malc#23] (puzzle: Exclusion 6)	–	–	–	584	228	864
UUCUUGGCAGGAUAUGCUCUCUUAGACAUGAGGAUCACCCAUGUGUUCAUUCUUUCUUUUGCAGAAGGGCCUUAAU [JR_E5_Sub045] (puzzle: Exclusion 5)	–	–	–	–	52.6	–
UGAUCUUGUGUCAGGAUAUGCUGGUCUCCUCUCCAGCAGAAGGGACAUGAGGAUCACCCAUGUUCUCUCUUUUU [Magic-11] (puzzle: Brourd's mod of Exclusion 4)	–	–	–	–	11.5	–
GGUACUCAAAGAGUACCAAUACGAACAUGAGGAUCACCCAUGUAGGAUAUGCUACUCAAAGAGUAGCAGAAGGAUAUGAGCCUC [Far Half Aptamer v11] (Eterna round: R96, puzzle: Exclusion NG 3)	663	319	334	–	–	–
UUGAUUGGUGUAGGAUAUGUAUGAGGAUCACCCAUUAAUAAAUUUUAACCACGAGGAUCACCCGUGUAGAAGGACAUUGGUCAA [pwkr exNG2 2xF5 1xFMN.19] (Eterna round: R96, puzzle: Exclusion NG 2)	33.1	23.5	38.4	–	–	–
ACUGUGUAAGGAUAUGUGAUACACUGCUAUUUAGGUGAGUCACAGAAGGUACAUGAGGAUCACCCAUGUCCGGG [Eternabot (L2) Solution 32] (Eterna round: R97, puzzle: Exclusion 4)	222	–	172	–	–	–
GGUCUGCGAGGAUAUACAUGAGGAUCACCCAUGUGCGAGUUACUAGUGAGGUCGGUUGGUAGAAGGCGCGGACG [JL-ex3-2.09 salish99 mod] (puzzle: Exclusion 3)	–	–	–	69.3	52.3	32.9
UUUCAACAUGAGGAUCACCCAUGUGAGGAUAUGAUGCAGCAGUGGUCUACGCUGUGCAUCAGAAGGCACAUGUG (puzzle: Exclusion 1)	–	–	–	–	130	–
AGGGUUUGAGGAUAUAUCUGGUGGGACAUGAGGAUCACCCAUGUUCAUGUCGUAUCCUCAGUAGAAGGCAGACAGG [Eternabot (Original) Solution 14] (Eterna round: R97, puzzle: Exclusion 5)	13.2	–	13.4	–	–	–
CUAGAUCUUCGGAUCUAGUACAUGAGGAUCACCCAUGUGACGAGUUACAUGAAAAACAAGCUUUUUGCUCGUCUUAU [Sensor v3 - Turn-off variant 1 - 8] (puzzle: Sensor v3, turn-off variant 1)	–	–	–	41.6	102	46.6
UUUAGUUCAGGAUAUGUAGAUUUUAACAUGAGGAUCACCCAUGUAGAUCCUGAAUUAACUACAGAAGGGAACAUUA [Exclusion 5: 2:d] (Eterna round: R96, puzzle: Exclusion 5)	81.1	20.3	24.7	–	–	–
